Data reported in the supplement of paper PMC10567573.
± gives the standard deviation.

Assay: protein stability index of a GFP-peptide fusion (GPS, HEK-293T) (PSI 1-6); higher = more stable
[1] = treatment: DMSO, c terminus: a fixed tail appended
[2] = treatment: MLN4924 1 uM, 8 h, c terminus: a fixed tail appended
[3] = treatment: DMSO, c terminus: native
[4] = treatment: MLN4924 1 uM, 8 h, c terminus: native
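Also: 24-mer peptide tiles fused after GFP, lentivirally expressed, FACS-sorted into six equal bins by GFP/DsRed ratio, decoded by Illumina sequencing, PSI is the read-weighted mean bin number.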

Sequence	protein stability index [1]	protein stability index [2]	protein stability index [3]	protein stability index [4]
DLEDPLGGLLSYDEGGITKQPPVT [FBF1]	4.41 ± 0.28	4.35 ± 0.43		
LPQPLAAHAGAVHNGKIYISGGVH [KLHL14]	3.17 ± 0.24	3.27 ± 0.3		
EMTPEKFSVLMEKLCKKGLAATTS [FANCE]	2.75 ± 0.57	2.88 ± 0.36		
LQSLDDTELRLLGRTHSACDALRT [RSAD1]	3.64 ± 0.2	3.85 ± 0.18		
ICYLPHWMMQNLLLEEGGLVQVES [UFD1]	2.65 ± 0.34	2.7 ± 0.5		
WEHSAPQRLPRSAPPGSLVTKVTA [PCDHGC5]	3.84 ± 0.092	4.02 ± 0.18		
CIYSEVMEALDLQPGLSFLNLGSG [PCMTD2]	2.29 ± 0.34	2.33 ± 0.44		
YEENEGAGPYLLNGSYLELSSDRV [ADAMTSL2]	3.88 ± 0.33	4.07 ± 0.46		
WATIEGLVELLQPFKQVAEMLSAS [ZBED1]	3.01 ± 0.76	2.94 ± 0.8		
PKGSKGKEKDSPFKPKLYKGDRGL [RBBP5]	3.86 ± 0.89	4.34 ± 0.46		
ETRVWHRRDGKWQNVHFHRSGSPT [CAMK2D]	3.74 ± 0.35	3.71 ± 0.17		
DGHRPEWTFYPRFSSNIHTYHVGK [SPATS1]	2.96 ± 0.077	3.01 ± 0.21		
QDSPLDLTVRKSQSEPSEQDGVLD [LCOR]	5.42 ± 0.32	5.35 ± 0.37		
RLVDRDSVWGYDLGLRSLIPAVLT [MYORG]	2.25 ± 0.54	2.28 ± 0.12		
FQVLCSINSIIHNPRAPVIIYKQT [CEP70]	2.76 ± 0.83	2.6 ± 1.1		
VNPNGQKQQLVDAFLKLAKQRSVC [FAN1]	3.16 ± 0.27	2.92 ± 0.32		
QKEVLPSMRKIVATWMLEVCEEQK [CCND1]	3.01 ± 0.27	3 ± 0.3		
KSVLKSDEEHMEEAITSASFLEQI [FAM189A2]	4.76 ± 0.31	4.85 ± 0.2		
SSHMNIDITDDCICDLARSIDFNK [PPEF2]	3.67 ± 0.35	3.89 ± 0.19		
DIDMTDYDDVRRCCSSADICPKCW [PRIM1]	4.8 ± 0.41	4.84 ± 0.25		
VLYALRSFDYEQFHELQMQVTASD [PCDHGA10]	2.26 ± 0.12	2.22 ± 0.27		
RQNLSKSWLDVQVSNTYVKQKTSA [TPD52L3]	3.83 ± 0.28	3.8 ± 0.25		

Sequence	protein stability index [1]	protein stability index [2]	protein stability index [3]	protein stability index [4]
TLGQAWQGYVSDIRRFLSAFHEPQ [DFFB]	2.29 ± 0.18	2.04 ± 0.22		
TSGNPNGRYGSGYLLASTPESEL [SLC6A17]			4.62 ± 0.37	4.58 ± 0.2
IKMMQAVRQAFQDQDDRRTWDGRP [GFOD1]	3.21 ± 0.26	3.6 ± 0.19		
GLLEAPGLQPVVFVLFLFAYLVTV [OR3A1]	2.53 ± 0.98	2.61 ± 0.8		
PDLNTLLWEAEDRQNVPRKVPNHY [CPXM2]	3.87 ± 0.27	3.86 ± 0.092		
LESRIRDVHELFLQMAVLVEKQAD [STX11]	2.27 ± 0.35	2.37 ± 0.34		
EKPPSGTKEKKHQCDHCERCFYTR [PLAGL1]	3.87 ± 0.26	4.3 ± 0.62		
DLVDLFDGTSQSTGGSADLFGGFA [CLINT1]	2.69 ± 0.23	3.2 ± 0.32		
SNTLGFGTEQAPYGMQTQNYPKGG [ETS2]	4.29 ± 0.26	4.2 ± 0.28		
RRKEYDALKAAKREQEKKPKKEAN [LRRC59]	5.25 ± 0.15	5.17 ± 0.22		
LNTLTLNVKSEKVYTRHGVPISVT [FLOT1]	2.51 ± 0.079	2.61 ± 0.21		
ACAQLATGAACRLVEAVLSGEVLN [HDAC6]	2.44 ± 0.53	2.65 ± 0.4		
PLRAAHRRFNFDTDRPLLSTLEES [SMG5]	3.94 ± 0.14	3.94 ± 0.18		
KWLLWTEHQYRLPPMGKAFQELAG [SPDEF]	2.44 ± 0.55	2.16 ± 0.48		
PVLGSSSGAGHGSGSGSGPGCGSV [SPAG8]	4.8 ± 0.36	4.92 ± 0.49		
SHTLEERVVHWYFKLLDKNSSGDI [SMOC2]	2.44 ± 0.36	2.03 ± 0.21		
NLSRGQTPLTEGSEDLDGHSDPEE [RETREG3]	5.65 ± 0.22	5.67 ± 0.15		
YNSPQFKKTMSTFHNLVSLNLNYN [FBXO39]	2.25 ± 0.32	2.12 ± 0.4		
NYFVTMFDDYSATLPLTLIVILEN [SLC6A17]	3.05 ± 0.61	2.85 ± 0.62		
ILALELICSLICLLIYTVKIRRFN [TMEM192]	3.42 ± 0.29	3.2 ± 0.41		
TKPSFESGRRGPPPPPRSRGPPRG [RBMX]	4.74 ± 0.33	4.81 ± 0.29		
IYSLRNKEFKSALCKIVRRTISLL [OR10K2]	2.74 ± 1.2	2.17 ± 0.49		

Sequence	protein stability index [1]	protein stability index [2]	protein stability index [3]	protein stability index [4]
NESLASLPLRVSFCPLSLWRWQLY [CLPTM1]	2.45 ± 0.41	2.18 ± 0.4		
TVTVISPLELMRTKLQAQHVSYRE [SLC25A39]	2.65 ± 0.41	2.81 ± 0.22		
RQHIPDTYLCERCQPRNLDKERAV [KMT2E]	2.81 ± 0.47	3.35 ± 0.15		
SSRVIAASYDKTVRAWDLETGKLL [WDR88]	2.76 ± 0.39	3.04 ± 0.29		
VFSYFLATDMISIFEPPVRNSGII [EFHC1]	3.65 ± 0.91	3.14 ± 0.67		
ELFQLQTYSLPPFLKAVLRQERVS [CDS1]	1.99 ± 0.28	1.97 ± 0.37		
TERGLSRKHIIEGLKASLERLQLE [KCNAB2]	2.5 ± 0.32	2.22 ± 0.19		
PPLEDFEVLDGVEDAEGEEEEEEE [FKBP8]	5.69 ± 0.27	5.61 ± 0.34		
SYLMLVTVMMWPLAVYHRLWDRAY [RETREG3]	3.62 ± 0.18	2.62 ± 0.6		
PLRVDLILENTSKVPAPKDVLAHQ [NOP53]	3.28 ± 0.036	3.5 ± 0.29		
TQARQVMEREFNNLLALGTDRKLD [PPFIA4]	4.21 ± 0.52	4.12 ± 0.38		
MFPGVLLPLLESCSVRPDASVSSH [TCF25]	2.62 ± 0.38	2.18 ± 0.2		
QLTEKLARVNENLARKIASRNEFD [SSNA1]	2.85 ± 0.18	3.24 ± 0.39		
TDGRPQDSVAEVAAKARDTGILIF [MATN2]	2.86 ± 0.23	3.12 ± 0.34		
LHESYCMDTSHQPLLPAPPKTPMD [LYSMD4]	4.65 ± 0.27	4.59 ± 0.11		
DTKMSFQWRIRNLPYPKDVYSVSV [DPCD]	2.79 ± 0.52	2.71 ± 0.65		
MEVGSGSRELSLRPSRSGAQQLEE [EID1]	5.43 ± 0.23	5.25 ± 0.35		
VKEPCSLPMLSVDMENKENGSVGV [SAMD13]	5 ± 0.19	5.11 ± 0.21		
AIDRNYVPGKSLAVSCPGWSAVA [SNX12]			2.73 ± 0.33	1.97 ± 0.31
RQVQSLMVHQRKLEAELLQIEERH [SMARCE1]	4 ± 0.12	4.23 ± 0.17		
PESLTKPDQVAPFTFLQPLPLSPG [ATF4]	4.21 ± 0.3	4.2 ± 0.12		
